Experiments:
Experiment in all cases: cell-based or functional assay
[1] = biological target: Akt kinase motif (AKM) peptide … of sensor AS1T
[2] = biological target: non-phosphorylable Akt kinase motif … (alanine substitution) of sensor AS1A
[3] = biological target: IRS-1 phosphorylation domain (PTB peptide), 13 amino acid peptide including Y941 of insulin receptor substrate 1

Row | Substance | FL activity of AS1T in 293T cells treated with PDGF for 30 minutes, relative to carrier control [1] [% decrease] | complemented FL activity of 293T/AS1T xenografts in nude mice 6 hours after 30 mg/kg perifosine, relative to carrier control treated mice [1] [% increase] | complemented FL activity of AS1T in BT474 cells treated with the PI-3K inhibitor LY294002 for 24 hours, relative to carrier control [1] [fold] | maximum induction of complemented FL activity of AS1T in response to LY294002 [1] [fold] | complemented FL activity of 293T/AS1A xenografts in nude mice 6 hours after 30 mg/kg perifosine, relative to carrier control treated mice [2] [% decrease] | complemented FL activity of untreated 293T/AS1A cells relative to untreated 293T/AS1T cells [2] [fold] | bioluminescence signal induction, split firefly IRS-1 sensor with (EAAAR)2 linker in CHO-IR cells implanted in nude mice, after insulin (fold induction) [3] | bioluminescence signal induction, split firefly IRS-1 sensor with (EAAAR)2 linker in CHO-IR cells implanted in nude mice, no insulin (fold induction) [3]
1 | yeast phosphothreonine FHA2 binding domain (from UniProt P22216 601-664) | 60 | 60 | 1.3 | 4 | 20 | 10 | – | –
2 | SH2 domain of PI3 Kinase (substrate recognition domain) (from UniProt P27986 330-433) | – | – | – | – | – | – | 5 | 1.3
